# B1: inducible lysine decarboxylase LdcI (enzyme, Escherichia coli)
# chain: MNVIAILNHMGVYFKEEPIRELHRALERLNFQIVYPNDRDDLLKLIENNARLCGVIFDWDKYNLELCEEISKMNENLPLYAFANTYSTLDVSLNDLRLQISFFEYALGAAEDIANKIKQTTDEYINTILPPLTKALFKYVREGKYTFCTPGHMGGTAFQKSPVGSLFYDFFGPNTMKSDISISVSELGSLLDHSGPHKEAEQYIARVFNADRSYMVTNGTSTANKIVGMYSAPAGSTILIDRNCHKSLTHLMMMSDVTPIYFRPTRNAYGILGGIPQSEFQHATIAKRVKETPNATWPVHAVITNSTYDGLLYNTDFIKKTLDVKSIHFDSAWVPYTNFSPIYEGKCGMSGGRVEGKVIYETQSTHKLLAAFSQASMIHVKGDVNEETFNEAYMMHTTTSPHYGIVASTETAAAMMKGNAGKRLINGSIERAIKFRKEIKRLRTESDGWFFDVWQPDHIDTTECWPLRSDSTWHGFKNIDNEHMYLDPIKVTLLTPGMEKDGTMSDFGIPASIVAKYLDEHGIVVEKTGPYNLLFLFSIGIDKTKALSLLRALTDFKRAFDLNLRVKNMLPSLYREDPEFYENMRIQELAQNIHKLIVHHNLPDLMYRAFEVLPTMVMTPYAAFQKELHGMTEEVYLDEMVGRINANMILPYPPGVPLVMPGEMITEESRPVLEFLQMLCEIGAHYPGFETDIHGAYRQADGRYTVKVLKEESKK
# notes: Inducible lysine decarboxylase LdcI of Escherichia coli; decamer of two pentameric rings; crystal structure pdb 3N75; also called acid stress-inducible lysine decarboxylase; source: E. coli CF1693 bearing pT7-322-Tetr, from pET22b, purified (Ni-NTA, MonoQ, Superdex S200); not shown: 24 amino acid linker containing 6xHis-tag, C-terminal, kept; copies: 10
# How the values were obtained:
# [1] = molecular target: B1; test: cryo-EM structure; LdcI–RavA complex, 11 Å; 1.26 mg/ml LdcI mixed with 0.94 mg/ml RavA, 15 min at room temperature, 25 mM Mes pH 6.5, 200 mM NaCl, 3 mM ADP, 0.8 mM PLP, 1 mM DTT; no cross-linking; D5 symmetry imposed; settings: both partners purified
# [2] = molecular target: the molecule itself; test: as above
# [3] = molecular target: the molecule itself; test: cryo-EM structure; LdcI-LARA complex, 7.5 Å; 7.3 µM LdcI with 73 µM LARA (1:10), 15 min at room temperature, 50 mM Mes pH 6.5, 100 mM NaCl, 0.2 mM PLP, 1 mM DTT, 0.01% glutaraldehyde; D5 symmetry imposed
stoichiometry N [1],Binder,stoichiometry N [2],stoichiometry N [3]
1.5 RavA monomers per LdcI monomer,"AAA+ ATPase RavA (enzyme, RavA of Escherichia coli, MoxR family AAA+ ATPase; crystal structure pdb 3NBX; The purification is told for the RavA mutants ('as previously described', El Bakkouri et al., 2010); also called MoxR AAA+ ATPase RavA; source: E. coli BL21-(DE3) Gold pLysS, from p11 plasmid, purified (Ni-NTA, TEV, MonoS, Superdex S200); not shown: 6xHis-tag, N-terminal, cleaved) not shown",6,
,B1,,10
